Measured values published in article PMC2837607, “Orthophosphate binding at the dimer interface of Corynebacterium callunae starch phosphorylase: mutational analysis of its role for activity and stability of the enzyme” (BMC Biochemistry, 2010).
Values joined by “and” are separate entries in the source; they are usually repeats but may differ in a detail not shown here. Equal values may be shown once. Values belong to the compound of their own block, whether it stands above or below them.

Experiments:
[1] = target: Corynebacterium callunae starch phosphorylase T28A (Corynebacterium callunae)
[2] = target: Corynebacterium callunae starch phosphorylase, wild-type (Corynebacterium callunae)
[3] = target: Corynebacterium callunae starch phosphorylase, wild-type (Corynebacterium callunae); remark: listed apart in the source
[4] = target: Corynebacterium callunae starch phosphorylase, wild-type (Corynebacterium callunae); remark: listed apart in the source
[5] = target: T1, Corynebacterium callunae starch phosphorylase (CcGlgP) (Corynebacterium callunae, UniProt Q8KQ56); conditions: 50 mM triethanolamine, pH 7.0; dimer-interface P- and CAP-sites, not the catalytic site; stabilisation against subunit dissociation
[6] = target: T1, Corynebacterium callunae starch phosphorylase (CcGlgP); assay: initial rate of glucan synthesis, Pi release; format: biochemical; set-up: full-length, N-terminal RGSHHHHHHGSA tag kept, from pQE 30-GlgP in E. coli JM109; homodimer (small tetramer fraction caused by tag); PLP enzyme; conditions: 50 mM G1P, 20 g/l starch, pH 7.0, 30 °C; apparent activation through dimer stabilisation, not allosteric
[7] = target: Corynebacterium callunae starch phosphorylase R141A (Corynebacterium callunae)
[8] = target: Corynebacterium callunae starch phosphorylase R141A (Corynebacterium callunae); assay: SEC; R141A as isolated, prior to imidazole, 0.4 mg/ml; HiLoad 16/60 Superdex 200 prep grade, 50 mM potassium phosphate buffer pH 7.0, 0.15 M NaCl, 1 ml/min; calibrated with Bio-Rad Gel Filtration Standard
[9] = target: T2, Corynebacterium callunae starch phosphorylase (CcGlgP) (Corynebacterium callunae, UniProt Q8KQ56, K32A); assay: colorimetric PLP quantitation of the isolated enzyme; format: binding; conditions: covalent (Schiff base with active-site Lys); as isolated
T2 construct: full-length, N-terminal RGSHHHHHHGSA tag kept, from pQE 30-GlgP in E. coli JM109; homodimer (small tetramer fraction caused by tag); PLP enzyme
From the text: (§1) colorimetric PLP quantitation of the isolated enzyme on Corynebacterium callunae starch phosphorylase (CcGlgP)

[10] = target: T3, Corynebacterium callunae starch phosphorylase (CcGlgP) (Corynebacterium callunae, UniProt Q8KQ56, R142A); assay: as above; format: binding; conditions: covalent (Schiff base with active-site Lys); as isolated
T3 construct: full-length, N-terminal RGSHHHHHHGSA tag kept, from pQE 30-GlgP in E. coli JM109; homodimer (small tetramer fraction caused by tag); PLP enzyme
From the text: as §1

[11] = target: T4, Corynebacterium callunae starch phosphorylase (CcGlgP) (Corynebacterium callunae, UniProt Q8KQ56, S175A); assay: as above; format: binding; conditions: covalent (Schiff base with active-site Lys); as isolated
T4 construct: full-length, N-terminal RGSHHHHHHGSA tag kept, from pQE 30-GlgP in E. coli JM109; homodimer (small tetramer fraction caused by tag); PLP enzyme
From the text: as §1

[12] = target: T5, Corynebacterium callunae starch phosphorylase (CcGlgP) (Corynebacterium callunae, UniProt Q8KQ56, T29A); assay: as above; format: binding; conditions: covalent (Schiff base with active-site Lys); as isolated
T5 construct: full-length, N-terminal RGSHHHHHHGSA tag kept, from pQE 30-GlgP in E. coli JM109; homodimer (small tetramer fraction caused by tag); PLP enzyme
From the text: as §1

[13] = target: T1, Corynebacterium callunae starch phosphorylase (CcGlgP); assay: as above; format: binding; set-up: full-length, N-terminal RGSHHHHHHGSA tag kept, from pQE 30-GlgP in E. coli JM109; homodimer (small tetramer fraction caused by tag); PLP enzyme; conditions: covalent (Schiff base with active-site Lys); as isolated
From the text: as §1

[14] = target: Corynebacterium callunae starch phosphorylase K31A (Corynebacterium callunae)
[15] = target: Corynebacterium callunae starch phosphorylase S174A (Corynebacterium callunae)
[16] = target: Corynebacterium callunae starch phosphorylase S174A (Corynebacterium callunae); remark: listed apart in the source

T1 sequence (Q8KQ56 entry or part of it): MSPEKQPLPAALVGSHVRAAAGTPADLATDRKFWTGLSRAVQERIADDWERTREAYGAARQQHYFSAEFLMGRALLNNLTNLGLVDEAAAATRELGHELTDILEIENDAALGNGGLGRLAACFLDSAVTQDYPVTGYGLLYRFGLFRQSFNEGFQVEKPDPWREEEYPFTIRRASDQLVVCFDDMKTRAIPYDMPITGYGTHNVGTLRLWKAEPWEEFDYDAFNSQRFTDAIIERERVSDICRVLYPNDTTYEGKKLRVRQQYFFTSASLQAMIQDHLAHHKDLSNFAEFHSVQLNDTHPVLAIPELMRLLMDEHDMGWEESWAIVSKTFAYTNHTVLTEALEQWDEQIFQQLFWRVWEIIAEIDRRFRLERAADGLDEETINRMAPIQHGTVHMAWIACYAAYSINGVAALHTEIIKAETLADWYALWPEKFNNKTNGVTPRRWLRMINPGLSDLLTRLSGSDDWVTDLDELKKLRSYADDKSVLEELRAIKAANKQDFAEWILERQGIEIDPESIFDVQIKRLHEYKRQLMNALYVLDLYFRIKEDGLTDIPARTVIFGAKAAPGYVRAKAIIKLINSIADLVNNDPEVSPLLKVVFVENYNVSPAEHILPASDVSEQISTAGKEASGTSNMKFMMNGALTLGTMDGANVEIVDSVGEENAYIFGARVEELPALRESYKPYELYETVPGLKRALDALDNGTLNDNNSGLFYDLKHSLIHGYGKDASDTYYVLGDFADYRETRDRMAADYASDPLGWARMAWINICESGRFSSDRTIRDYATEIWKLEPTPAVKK
T5 sequence (Q8KQ56 entry or part of it T29A): as the sequence (Q8KQ56 entry or part of it) above, with T29A counted along it
T4 sequence (Q8KQ56 entry or part of it S175A): as the sequence (Q8KQ56 entry or part of it) above, with S175A counted along it
T2 sequence (Q8KQ56 entry or part of it K32A): as the sequence (Q8KQ56 entry or part of it) above, with K32A counted along it
T3 sequence (Q8KQ56 entry or part of it R142A): as the sequence (Q8KQ56 entry or part of it) above, with R142A counted along it

- half-life time (t1/2) of enzyme activity at 45°C, pH 7.0; no Pi, 10.0 mM Pi, 100 mM Pi (0.8, 2.2, 3.3 × 10^2 min) [1]: 330 min
- half-life time (t1/2) of enzyme activity in 0.4 M imidazole at 30°C; no Pi, 5.0 mM Pi (1.9, 5.6 min) [1]: 5.6 min
Compound: Corynebacterium callunae starch phosphorylase T28A (enzyme)

- half-life time (t1/2) of enzyme activity at 45°C, pH 7.0; no Pi, 10.0 mM Pi, 100 mM Pi (2.6, 2.8 × 10^2, 3.5 × 10^3 min) [2]: 3500 min
- half-life time (t1/2) of enzyme activity in 0.4 M imidazole at 30°C; no Pi, 5.0 mM Pi (22, 160 min) [2]: 160 min
- stimulation of the initial rate of glucan synthesis (Vs) by sulphate (5.0 - 40 mM (NH4)2SO4), 50 mM G1P, relative to the control lacking sulphate; maximum at around 10 mM sulphate [3]: 3 fold
- apparent activation of Vs by 10 mM sulphate at 2.5 nM protein, 50 mM G1P [4]: 2.4 fold
Compound: Corynebacterium callunae starch phosphorylase, wild-type (enzyme)

- inactivation at 45°C / 10.0 mM Pi [5]: 280 min
Compound: O=P(O)(O)O [orthophosphate]

Compound: O=S(=O)(O)O [sulphate]
- maximum stimulation of Vs at around 10 mM sulphate [6]: ~ 3 fold

- half-life time (t1/2) of enzyme activity at 45°C, pH 7.0; no Pi, 10.0 mM Pi, 100 mM Pi (2.9, 7.5, 1.4 × 10^3 min) [7]: 1400 min
- half-life time (t1/2) of enzyme activity in 0.4 M imidazole at 30°C; no Pi, 5.0 mM Pi (6.4, 27 min) [7]: 27 min
- stoichiometry N [8]: 2 and 4
Compound: Corynebacterium callunae starch phosphorylase R141A (enzyme)

- PLP / [μM/μM protein] [9]: 0.6 μM/μM protein
- PLP / [μM/μM protein] [10]: 0.7 μM/μM protein
- PLP / [μM/μM protein] [11]: 0.7 μM/μM protein
- PLP / [μM/μM protein] [12]: 0.6 μM/μM protein
- PLP / [μM/μM protein] [13]: 0.7 μM/μM protein
Compound: Cc1ncc(COP(=O)(O)O)c(C=O)c1O [pyridoxal 5'-phosphate]

- half-life time (t1/2) of enzyme activity at 45°C, pH 7.0; no Pi, 10.0 mM Pi, 100 mM Pi (5.3, 1.7 × 10^2, 3.5 × 10^3 min) [14]: 3500 min
- half-life time (t1/2) of enzyme activity in 0.4 M imidazole at 30°C; no Pi, 5.0 mM Pi (10, 25 min) [14]: 25 min
Compound: Corynebacterium callunae starch phosphorylase K31A (enzyme)

- half-life time (t1/2) of enzyme activity at 45°C, pH 7.0; no Pi, 10.0 mM Pi, 100 mM Pi (2.8, 33, 9.9 × 10^2 min) [15]: 990 min
- half-life time (t1/2) of enzyme activity in 0.4 M imidazole at 30°C; no Pi, 5.0 mM Pi (14, 58 min) [15]: 58 min
- enhancement of Vs by 10 mM sulphate, 50 mM G1P; protein 2.5 nM (~5-fold) and 50 nM (1.7-fold) [16]: 5 fold
Compound: Corynebacterium callunae starch phosphorylase S174A (enzyme)
